How the values were obtained:
[1] = molecular target: NCOR1 peptide (Homo sapiens, UniProt O75376); experiment: SPR
[2] = molecular target: SRC1 peptide (Homo sapiens, UniProt Q15788); experiment: SPR
Chain of SRC1 peptide (Q15788 2-1441): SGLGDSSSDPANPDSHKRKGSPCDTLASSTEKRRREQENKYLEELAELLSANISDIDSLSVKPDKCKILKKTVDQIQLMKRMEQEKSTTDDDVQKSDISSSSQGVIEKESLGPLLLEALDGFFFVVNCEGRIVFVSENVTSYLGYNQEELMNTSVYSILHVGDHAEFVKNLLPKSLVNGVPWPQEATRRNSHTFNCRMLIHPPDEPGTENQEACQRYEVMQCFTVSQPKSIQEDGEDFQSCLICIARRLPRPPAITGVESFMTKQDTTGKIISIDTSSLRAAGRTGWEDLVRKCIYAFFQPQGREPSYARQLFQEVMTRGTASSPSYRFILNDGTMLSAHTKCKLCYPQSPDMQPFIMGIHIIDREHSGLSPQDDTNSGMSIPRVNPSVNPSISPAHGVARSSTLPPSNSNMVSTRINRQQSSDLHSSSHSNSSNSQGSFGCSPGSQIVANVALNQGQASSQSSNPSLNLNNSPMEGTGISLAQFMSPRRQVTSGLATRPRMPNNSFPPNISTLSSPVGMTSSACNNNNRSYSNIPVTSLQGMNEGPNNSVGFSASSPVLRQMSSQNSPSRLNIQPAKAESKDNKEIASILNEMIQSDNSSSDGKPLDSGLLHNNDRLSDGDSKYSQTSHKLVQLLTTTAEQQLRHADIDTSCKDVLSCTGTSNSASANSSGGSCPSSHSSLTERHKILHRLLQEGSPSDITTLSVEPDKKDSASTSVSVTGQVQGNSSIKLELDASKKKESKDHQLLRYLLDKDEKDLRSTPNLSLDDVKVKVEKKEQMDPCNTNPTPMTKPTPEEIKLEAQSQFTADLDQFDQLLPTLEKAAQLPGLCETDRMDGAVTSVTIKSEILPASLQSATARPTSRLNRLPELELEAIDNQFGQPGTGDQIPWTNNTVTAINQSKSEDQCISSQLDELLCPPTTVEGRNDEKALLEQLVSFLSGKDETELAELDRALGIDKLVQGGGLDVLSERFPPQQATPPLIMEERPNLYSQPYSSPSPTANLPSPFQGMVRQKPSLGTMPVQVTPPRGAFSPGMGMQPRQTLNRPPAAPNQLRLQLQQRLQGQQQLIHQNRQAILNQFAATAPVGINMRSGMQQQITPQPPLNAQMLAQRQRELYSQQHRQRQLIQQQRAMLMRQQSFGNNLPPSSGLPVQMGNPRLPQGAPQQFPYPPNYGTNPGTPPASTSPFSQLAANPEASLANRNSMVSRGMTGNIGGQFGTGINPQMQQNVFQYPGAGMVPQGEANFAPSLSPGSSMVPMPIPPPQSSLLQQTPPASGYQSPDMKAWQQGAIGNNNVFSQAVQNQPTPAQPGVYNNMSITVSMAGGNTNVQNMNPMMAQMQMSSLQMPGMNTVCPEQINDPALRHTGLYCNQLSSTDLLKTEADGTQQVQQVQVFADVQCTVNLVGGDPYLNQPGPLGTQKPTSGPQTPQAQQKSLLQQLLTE

Chain of NCOR1 peptide (O75376 whole entry): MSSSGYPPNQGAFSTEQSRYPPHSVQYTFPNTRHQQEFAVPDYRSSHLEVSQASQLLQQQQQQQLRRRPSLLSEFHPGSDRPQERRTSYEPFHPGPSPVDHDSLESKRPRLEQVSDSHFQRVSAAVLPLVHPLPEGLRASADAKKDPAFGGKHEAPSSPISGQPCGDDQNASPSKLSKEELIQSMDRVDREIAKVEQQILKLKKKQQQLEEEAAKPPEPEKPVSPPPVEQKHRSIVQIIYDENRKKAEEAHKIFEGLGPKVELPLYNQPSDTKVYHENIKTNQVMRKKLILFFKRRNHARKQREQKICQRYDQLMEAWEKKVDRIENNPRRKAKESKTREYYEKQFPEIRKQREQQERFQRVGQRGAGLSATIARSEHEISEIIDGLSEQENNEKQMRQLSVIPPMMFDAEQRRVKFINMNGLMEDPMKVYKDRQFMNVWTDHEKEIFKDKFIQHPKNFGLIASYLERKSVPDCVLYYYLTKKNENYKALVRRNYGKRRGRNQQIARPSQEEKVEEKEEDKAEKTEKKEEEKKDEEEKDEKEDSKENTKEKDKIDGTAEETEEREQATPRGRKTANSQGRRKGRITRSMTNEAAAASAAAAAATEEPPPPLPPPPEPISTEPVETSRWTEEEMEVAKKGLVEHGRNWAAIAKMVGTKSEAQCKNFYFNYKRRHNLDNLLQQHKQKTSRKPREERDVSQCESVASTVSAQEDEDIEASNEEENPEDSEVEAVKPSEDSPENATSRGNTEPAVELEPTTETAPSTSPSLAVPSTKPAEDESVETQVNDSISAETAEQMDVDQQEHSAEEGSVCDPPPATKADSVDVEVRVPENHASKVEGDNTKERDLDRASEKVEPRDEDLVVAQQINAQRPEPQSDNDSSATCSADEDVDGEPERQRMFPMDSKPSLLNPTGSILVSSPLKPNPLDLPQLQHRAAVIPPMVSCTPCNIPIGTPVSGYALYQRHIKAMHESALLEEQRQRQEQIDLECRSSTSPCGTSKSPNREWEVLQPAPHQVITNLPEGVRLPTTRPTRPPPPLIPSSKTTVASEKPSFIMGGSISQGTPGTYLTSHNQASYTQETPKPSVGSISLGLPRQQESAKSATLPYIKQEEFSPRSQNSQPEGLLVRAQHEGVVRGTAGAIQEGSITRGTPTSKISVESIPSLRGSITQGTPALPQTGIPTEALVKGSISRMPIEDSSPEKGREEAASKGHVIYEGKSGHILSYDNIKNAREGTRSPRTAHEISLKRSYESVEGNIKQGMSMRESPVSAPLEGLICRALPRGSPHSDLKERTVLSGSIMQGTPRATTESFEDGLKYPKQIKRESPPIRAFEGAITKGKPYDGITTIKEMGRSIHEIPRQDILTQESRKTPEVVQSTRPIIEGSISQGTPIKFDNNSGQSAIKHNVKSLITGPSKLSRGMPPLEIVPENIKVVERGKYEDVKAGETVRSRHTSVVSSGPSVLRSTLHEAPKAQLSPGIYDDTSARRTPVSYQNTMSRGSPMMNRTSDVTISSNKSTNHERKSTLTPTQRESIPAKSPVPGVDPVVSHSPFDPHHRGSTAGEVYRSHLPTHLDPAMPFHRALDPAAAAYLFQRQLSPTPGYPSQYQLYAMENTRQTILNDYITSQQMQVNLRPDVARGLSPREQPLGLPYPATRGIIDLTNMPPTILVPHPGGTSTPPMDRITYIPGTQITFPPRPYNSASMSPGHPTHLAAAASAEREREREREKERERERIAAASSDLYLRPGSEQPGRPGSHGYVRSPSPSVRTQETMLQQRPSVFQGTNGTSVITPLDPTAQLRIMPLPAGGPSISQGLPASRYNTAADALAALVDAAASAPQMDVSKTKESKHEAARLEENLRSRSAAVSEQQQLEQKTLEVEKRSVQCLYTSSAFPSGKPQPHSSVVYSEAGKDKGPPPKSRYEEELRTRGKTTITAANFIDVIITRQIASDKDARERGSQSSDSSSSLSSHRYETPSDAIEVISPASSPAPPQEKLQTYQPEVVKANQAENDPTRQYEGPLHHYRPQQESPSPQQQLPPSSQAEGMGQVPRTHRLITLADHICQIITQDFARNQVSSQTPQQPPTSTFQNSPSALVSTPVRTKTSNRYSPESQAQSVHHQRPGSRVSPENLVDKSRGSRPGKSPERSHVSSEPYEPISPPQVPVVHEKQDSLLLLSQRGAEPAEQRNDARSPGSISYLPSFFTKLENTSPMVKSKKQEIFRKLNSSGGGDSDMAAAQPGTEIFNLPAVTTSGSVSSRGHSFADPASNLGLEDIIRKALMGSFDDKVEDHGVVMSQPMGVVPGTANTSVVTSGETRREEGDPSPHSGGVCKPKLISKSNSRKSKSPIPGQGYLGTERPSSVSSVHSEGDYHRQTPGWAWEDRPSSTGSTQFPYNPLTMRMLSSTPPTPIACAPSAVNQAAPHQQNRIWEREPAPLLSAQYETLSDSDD

Binder	Kd [1]	Kd [2]
LXRα LBD (protein) EQLGMIEKLVAAQQQCNRRSFSDRLRVTPWPMAPDPHSREARQQRFAHFTELAIVSVQEIVDFAKQLPGFLQLSREDQIALLKTSAIEVMLLETSRRYNPGSESITFLKDFSYNREDFAKAGLQVEFINPIFEFSRAMNELQLNDAEFALLIAISIFSADRPNVQDQLQVERLQHTYVEALHAYVSIHHPHDRLMFPRMLMKLVSLRTLSSVHSEQVFALRLQDKKLPPLLSEIWDVHE	800 nM	–
LXRα LBD (protein, lipogenic agonists (average)) EQLGMIEKLVAAQQQCNRRSFSDRLRVTPWPMAPDPHSREARQQRFAHFTELAIVSVQEIVDFAKQLPGFLQLSREDQIALLKTSAIEVMLLETSRRYNPGSESITFLKDFSYNREDFAKAGLQVEFINPIFEFSRAMNELQLNDAEFALLIAISIFSADRPNVQDQLQVERLQHTYVEALHAYVSIHHPHDRLMFPRMLMKLVSLRTLSSVHSEQVFALRLQDKKLPPLLSEIWDVHE	–	1200 nM
LXRα LBD (protein, AZ6) EQLGMIEKLVAAQQQCNRRSFSDRLRVTPWPMAPDPHSREARQQRFAHFTELAIVSVQEIVDFAKQLPGFLQLSREDQIALLKTSAIEVMLLETSRRYNPGSESITFLKDFSYNREDFAKAGLQVEFINPIFEFSRAMNELQLNDAEFALLIAISIFSADRPNVQDQLQVERLQHTYVEALHAYVSIHHPHDRLMFPRMLMKLVSLRTLSSVHSEQVFALRLQDKKLPPLLSEIWDVHE	–	1500 nM
LXRβ LBD (protein) AQELMIQQLVAAQLQCNKRSFSDQPKVTPWPLGADPQSRDARQQRFAHFTELAIISVQEIVDFAKQVPGFLQLGREDQIALLKASTIEIMLLETARRYNHETECITFLKDFTYSKDDFHRAGLQVEFINPIFEFSRAMRRLGLDDAEYALLIAINIFSADRPNVQEPGRVEALQQPYVEALLSYTRIKRPQDQLRFPRMLMKLVSLRTLSSVHSEQVFALRLQDKKLPPLLSEIWDVHE	500 nM	–

Second part, the binder after the results:

Kd [1]	Kd [2]	Binder
–	2500 nM	LXRβ LBD (protein, 24,25EC) AQELMIQQLVAAQLQCNKRSFSDQPKVTPWPLGADPQSRDARQQRFAHFTELAIISVQEIVDFAKQVPGFLQLGREDQIALLKASTIEIMLLETARRYNHETECITFLKDFTYSKDDFHRAGLQVEFINPIFEFSRAMRRLGLDDAEYALLIAINIFSADRPNVQEPGRVEALQQPYVEALLSYTRIKRPQDQLRFPRMLMKLVSLRTLSSVHSEQVFALRLQDKKLPPLLSEIWDVHE
–	19800 nM	LXRβ LBD (protein, BMS-852927) AQELMIQQLVAAQLQCNKRSFSDQPKVTPWPLGADPQSRDARQQRFAHFTELAIISVQEIVDFAKQVPGFLQLGREDQIALLKASTIEIMLLETARRYNHETECITFLKDFTYSKDDFHRAGLQVEFINPIFEFSRAMRRLGLDDAEYALLIAINIFSADRPNVQEPGRVEALQQPYVEALLSYTRIKRPQDQLRFPRMLMKLVSLRTLSSVHSEQVFALRLQDKKLPPLLSEIWDVHE
